Measured values: PMC6695518
pKd: −log10 of the molar value. Values belong to the substance of their own block, whether it stands above or below them.

How the values were obtained:
[1] = system: TbMex67;TbMtr2 (Trypanosoma brucei;Trypanosoma brucei); assay: filter binding; settings: TbMex67 and TbMtr2 preincubated together; Kd in total TbMex67; 10 mM Tris-HCl pH 7.4, 100 mM NaCl, 1 mM EDTA, 100 ug/ml BSA, 0.05 nM RNA, 0-200 nM protein, 30 min, room temperature; RNA preheated 55 C 10 min then ice
[2] = system: TbMex67 (Trypanosoma brucei); assay: filter binding; settings: TbMex67 alone; 10 mM Tris-HCl pH 7.4, 100 mM NaCl, 1 mM EDTA, 100 ug/ml BSA, 0.05 nM RNA, 0-200 nM protein, 30 min, room temperature; RNA preheated 55 C 10 min then ice
[3] = molecular target: ribosomal protein L5, endogenous (Trypanosoma brucei brucei strain 427 (endogenous in procyclic cells)); assay: co-IP; in vivo immune capture as above, with RNase A (50 ug) added to the whole-cell extract; Western blot for TbMex67; input set at 1.0
P34/P37, endogenous [4] = assay: as above
[5] = molecular target: ribosomal protein L5, endogenous (Trypanosoma brucei brucei strain 427 (endogenous in procyclic cells)); assay: co-IP; in vivo immune capture: 100 ug procyclic whole-cell extract with anti-P34/P37 or anti-L5 cross-linked protein A Dynabeads, PBS with 10 mg/ml BSA, 1 h at 4°C, without RNase A; Western blot for TbMex67; input set at 1.0
P34/P37, endogenous [6] = assay: as above
[7] = molecular target: recombinant His-tagged L5 (Trypanosoma brucei); assay: co-IP; recombinant immune capture as above, with in vitro-transcribed 5S rRNA added before the proteins at an equal molar ratio; Western blot
[8] = molecular target: recombinant His-tagged P34 (Trypanosoma brucei); assay: as above

Substance: 5S rRNA
pKd [1]: 8.00
pKd [2]: 7.39

Substance: Trypanosoma brucei Mex67 (TbMex67), endogenous (natural protein)
amount of TbMex67 in the pellet, with RNase A (relative to input set at 1.0) [3]: 0.8
relative amount of TbMex67 in the pellet, with RNase A (relative to input set at 1.0) (P34/P37, endogenous [4]): 0.53
fraction of the total amount of TbMex67 associated with L5 (relative to input set at 1.0) [5]: 0.43
relative total amount of TbMex67 in the pellet fraction (relative to input set at 1.0) (P34/P37, endogenous [6]): 0.35

ratio of TbMex67 in the pellet with 5S rRNA to without [7]: 0.94
ratio of TbMex67 in the pellet with 5S rRNA to without [8]: 0.94
Substance: recombinant His-tagged TbMex67 (natural protein)
